For the assay, the target named is TNF-α. Description: cell-based or functional assay.

Etanercept (Fc fusion) had an EC50, L929 cytotoxicity assay (protection of L929 cells from TNF-α) of 1.1 ng/mL.
The same measure, in the same setting: in the case of “Recombinant soluble TNFR2 (rsTNFR2) (from UniProt P25119 23-258) (receptor)” it was 698 ng/mL.
In the case of “mouse TNFR2 Δ7 with His-tag, from clone 1144-4 transfected HeLa cells (receptor)”, the EC50, L929 cytotoxicity assay; extracellular media from 1144-4 transfected HeLa cells stood at 2.4 ng/mL.
With “mouse TNFR2 Δ7 without His-tag, from clone 1145-3 transfected HeLa cells (from UniProt P25119 23-474) (receptor)”, the EC50, L929 cytotoxicity assay; extracellular media from 1145-3 transfected HeLa cells is 2.4 ng/mL.

The record behind these values is patent publication US20190359986A1.
